From patent US20090311278A1, “Novel teleost derived antimicrobial polypeptides” (THE UNIVERSITY OF GEORGIA RESEARCH FOUNDATION, published 2009) come the findings set out here.

The target of this series is T1, NCAMP-1 (histone H1X-like ODN binding protein), recombinant (Ictalurus punctatus).
T1 chain: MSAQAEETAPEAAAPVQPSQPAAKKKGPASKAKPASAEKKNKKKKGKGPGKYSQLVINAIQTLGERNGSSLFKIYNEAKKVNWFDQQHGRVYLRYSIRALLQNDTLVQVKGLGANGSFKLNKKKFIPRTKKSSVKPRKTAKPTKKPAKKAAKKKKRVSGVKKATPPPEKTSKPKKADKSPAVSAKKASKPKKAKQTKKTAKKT
The experiment in a line: Southwestern blot. To be noted: tags: C-terminal 6xHis (pET-21b, E. coli); label: biotin (3').

Description: Biotinylated ODNs were used to identify potential. DNA binding proteins in NCC membrane lysate preparations and to evaluate the ODN binding of recombinant NCAMP-1. Membrane lysates were prepared as indicated above. Purified recombinant NCAMP-1 was mixed with SDS-PAGE sample buffer (reducing) prior to electrophoresis. […] Membranes were blocked in Superblock (Pierce, Rockford Ill.) blocking solution with 0.05% Tween-20. ODN's were diluted in Superblock and added to membranes (1 h, room temperature). Membranes were washed (3×) in TBS with 0.5% Tween-20 (TBST). Neutraviden-HRP (Pierce) diluted in Superblock (minimum dilution 1:50000) was added and incubated for 30 min at room temperature. Blots were washed (3×) in TBST and were developed with enhanced chemiluminiscence (SuperSignal® West Pico Pierce, Rockford, Ill.).

Take TGCTGCTTGTGCTTGTGCTT (ssDNA) [GpC ODN]: the binding result is given as “binds”. Under TCGTCGTTGTCGTTGTCGTT (ssDNA) [CpG ODN] stands “binds”.
